# Experimental data published in FireProtDB (doi:10.1021/bi960863y).
# Settings: Escherichia coli (strain K12), pH 7, Urea, CD, Potassium phosphate 10 mM, reversible: yes (>95%)
substance,measurement,setting,value
"Phosphocarrier protein HPr wild type, P0AA04",denaturant m value,0 °C,1.29 kcal/mol/M
same,denaturant midpoint (higher = more stable),0 °C,4 M
same,unfolding free energy,0 °C,4.63 kcal/mol
same,denaturant m value,5 °C,1.18 kcal/mol/M
same,denaturant midpoint (higher = more stable),5 °C,4.38 M
same,unfolding free energy,5 °C,5.08 kcal/mol
same,denaturant m value,10 °C,1.36 kcal/mol/M
same,denaturant midpoint (higher = more stable),10 °C,4.58 M
same,unfolding free energy,10 °C,5.31 kcal/mol
same,denaturant m value,25 °C,1.19 kcal/mol/M
same,denaturant midpoint (higher = more stable),25 °C,4.58 M
same,unfolding free energy,25 °C,5.31 kcal/mol
same,denaturant m value,30 °C,1.14 kcal/mol/M
same,denaturant midpoint (higher = more stable),30 °C,4.32 M
same,unfolding free energy,30 °C,5 kcal/mol
same,denaturant m value,35 °C,1.01 kcal/mol/M
same,denaturant midpoint (higher = more stable),35 °C,4.04 M
same,unfolding free energy,35 °C,4.68 kcal/mol
same,denaturant m value,40 °C,1.06 kcal/mol/M
same,denaturant midpoint (higher = more stable),40 °C,3.58 M
same,unfolding free energy,40 °C,4.14 kcal/mol
same,denaturant m value,45 °C,1.01 kcal/mol/M
same,denaturant midpoint (higher = more stable),45 °C,2.9 M
same,unfolding free energy,45 °C,3.37 kcal/mol
same,denaturant m value,50 °C,1.11 kcal/mol/M
same,denaturant midpoint (higher = more stable),50 °C,2.09 M
same,unfolding free energy,50 °C,2.42 kcal/mol
